Changes are numbered by the printed parent chain.
T1: human OX40 extracellular domain (ECD) protein (human, UniProt P43489 29-214)
T1 construct: extracellular domain; also called human OX40 ECD; human OX40 protein; not shown: human Fc or His tag
T1 sequence (looked up): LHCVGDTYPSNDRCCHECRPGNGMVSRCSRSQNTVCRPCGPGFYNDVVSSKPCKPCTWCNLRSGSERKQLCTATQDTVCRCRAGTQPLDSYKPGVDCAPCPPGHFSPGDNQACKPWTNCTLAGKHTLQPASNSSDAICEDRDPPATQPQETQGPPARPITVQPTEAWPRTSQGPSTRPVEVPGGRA

T2: human OX40, full-length, on cells (human, UniProt P43489 29-277)
T2 construct: whole, on cells; also called hPro1; cell surface human OX40
T2 sequence (looked up): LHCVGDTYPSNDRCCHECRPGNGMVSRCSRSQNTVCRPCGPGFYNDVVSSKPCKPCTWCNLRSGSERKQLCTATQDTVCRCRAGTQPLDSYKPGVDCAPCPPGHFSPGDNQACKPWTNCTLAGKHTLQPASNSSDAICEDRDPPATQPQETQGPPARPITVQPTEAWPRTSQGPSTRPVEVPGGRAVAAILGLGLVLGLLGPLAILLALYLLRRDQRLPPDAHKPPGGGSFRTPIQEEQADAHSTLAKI

T3: human CD271 ECD (human, UniProt P08138 29-250)
T3 construct: extracellular domain
T3 sequence (looked up): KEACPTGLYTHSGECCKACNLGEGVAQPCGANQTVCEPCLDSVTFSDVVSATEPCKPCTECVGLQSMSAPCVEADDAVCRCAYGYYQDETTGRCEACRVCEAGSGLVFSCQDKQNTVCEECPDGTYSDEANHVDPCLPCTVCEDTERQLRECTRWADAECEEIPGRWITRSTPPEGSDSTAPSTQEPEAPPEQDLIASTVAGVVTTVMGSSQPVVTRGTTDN

T4: mouse OX40 (mPro1) on transfected 293F cells (mouse, UniProt P47741 20-272)
T4 construct: whole, on cells
T4 sequence (looked up): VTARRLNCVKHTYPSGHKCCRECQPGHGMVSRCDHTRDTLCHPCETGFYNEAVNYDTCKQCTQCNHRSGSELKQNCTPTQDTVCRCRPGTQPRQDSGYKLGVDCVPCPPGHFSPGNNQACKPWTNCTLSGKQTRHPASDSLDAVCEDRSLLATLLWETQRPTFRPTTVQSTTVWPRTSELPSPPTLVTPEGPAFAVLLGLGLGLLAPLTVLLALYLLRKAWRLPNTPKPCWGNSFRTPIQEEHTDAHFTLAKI

B1: 1.7.10-u1-IgG1K (antibody, V domains shown)
VH: QVHLVESGGGLVKPGGSLRLSCAASGFTFSDYYMSWIRQAPGKGLEWVSYISGSGNTIYYADSVKGRFTISRDNAKNSLYLQMNSLRADDTAVYFCARERGAAGTGWFDPWGQGTLVTVSS
VL: DIQMTQSPSSVSASVGDRVTITCRASQGISSWLAWYQQKPGKAPKLLIYAASSLQGGVPSRFSGSGSGTDFTLTISSLQPEDFATYYCQQVNSFPWTFGQGTKVEIK
notes: fully human IgG1, kappa
B2: 1.186.19-u1-IgG1K (antibody, V domains shown)
VH: B1 VH with S35G, K43Q, R98K, T105A
VL: B1 VL with Y87H
notes: fully human IgG1, kappa
B3: 1.62.3-u1-IgG1K (antibody, V domains shown)
VH: QVQLQESGPGLVKPSQTLSLTCTVSGGSISNGGYYWSWIRQHPGKGLEWIGYIYYSGSTYYNPSLKSRVTISVDTSKNQFSLKLSSVTAADTAVYYCARDEWELRGFDYWGQGTLVTVSS
VL: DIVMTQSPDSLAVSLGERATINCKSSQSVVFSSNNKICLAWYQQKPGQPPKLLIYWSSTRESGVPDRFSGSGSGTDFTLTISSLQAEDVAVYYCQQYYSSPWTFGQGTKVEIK
notes: fully human IgG1, kappa
B4: 1.62.3-u1-3-IgG1K (antibody, V domains shown)
VH: B3 VH with G32A
VL: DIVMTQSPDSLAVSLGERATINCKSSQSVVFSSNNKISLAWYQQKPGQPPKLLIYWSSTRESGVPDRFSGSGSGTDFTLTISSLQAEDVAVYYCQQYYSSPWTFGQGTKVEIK
notes: fully human IgG1, kappa; PTM variant of 1.62.3-u1-IgG1K (G to A in CDRH1, C to S in CDRL1)
B5: 1.214.23-u1-IgG1K (antibody, V domains shown)
VH: QVQLQESGPGLVKPSGTLSLTCVVSGGSISNRNWWSWVRQPPGKGLEWIGEIFHSGNTNYNPSLKSRVTISVDKSKNQFSLKVNSVTAADTAVYYCAKSFAVALDSWGQGTLVTVSS
VL: DIQLTQSPSFLSASVGDRVTITCRASQDINSYLAWCQQKPGKAPKLLIYAASSLQSGVPSRFSGTGSGTEFTLTISSLQPEDFATYYCQQLFSYPITFGQGTRLEIK
notes: fully human IgG1, kappa

Tests used:
[1] = biological target: T1, human OX40 extracellular domain (ECD) …; assay: SPR, Biacore T200, antibody captured, OX40 as analyte
Procedure: Antibodies were characterized for affinity and binding kinetics to OX40 by SPR assay using Biacore T200 (GE). […] Then various concentrations of human or monkey OX40 and running buffer were flowed through the sensor chip at a flow rate of 30 μL/min for an association phase of 180 s, followed by dissociation. The association and dissociation curve was fit by 1:1 Langmuir binding model using the BIAevaluation T200 software.

[2] = biological target: T1, human OX40 extracellular domain (ECD) …; assay: epitope binning by competition against labelled BMK7 on human OX40; the antibody named in the legend box is titrated; the text describes an ELISA, the axis on the sheet reads MFI
[3] = biological target: T2, human OX40, full-length, on cells; assay: flow cytometry on activated human CD4+ T cells
Procedure: Briefly, human OX40-expressing CHO-K1 cells or activated human CD4⁺ T cells were transferred into 96-well U-bottom plates (Corning) at a density of 1×10⁵ cells/well. Testing antibodies were serially diluted in wash buffer (1×PBS/1% BSA) and incubated with cells at 4° C. for 1 h. After washing with 1×PBS/1% BSA, the secondary antibody goat anti-human IgG Fc-PE (Jackson ImmunoResearch Lab) was applied and incubated with cells at 4° C. in the dark for 1 h. The cells were then washed and resuspended in 1×PBS/1% BSA or fixed with 4% paraformaldehyde, and then analyzed by flow cytometry (BD).

human CD271 ECD = biological target: T3, human CD271 ECD; assay: ELISA on coated ECD, one antibody concentration (not given)
human 4-1BB (CD137) ECD = biological target: T5, human 4-1BB (CD137) ECD (human, UniProt Q07011 24-186); assay: as above
T5 construct: extracellular domain
Procedure: (§1) Human OX40, CD40, 4-1BB (CD137) and CD271 ECD were coated on plates (Nunc) overnight at 4° C. After blocking and washing, testing antibodies were diluted in blocking buffer and added to the plates and incubated at room temperature for 1 h. The plates were then washed and subsequently incubated with secondary antibody goat anti-human IgG Fc-HRP (Bethyl) for 1 h. After washing, TMB substrate was added and the interaction was stopped by 2M HCl.

human CD40 ECD = biological target: T6, human CD40 ECD (human, UniProt P25942 21-193); assay: as above
T6 construct: extracellular domain
Procedure: as §1

[4] = biological target: T1, human OX40 extracellular domain (ECD) …; assay: competition ELISA: human OX40 ECD coated, antibody titrated in a mix with a constant concentration of OX40L, bound OX40L detected at OD450
Procedure: Briefly, plates (Nunc) were coated with human OX40 ECD at 1 μg/mL overnight at 4° C. […] After washing, TMB substrate was added and the interaction was stopped by 2M HCl.

[5] = biological target: T2, human OX40, full-length, on cells; assay: flow cytometry on human OX40 transfected CHO-K1 cells
Procedure: (§2) CHO-K 1 cells expressing human OX40 were transferred in to 96-well U-bottom plates (Corning) at a density of 5×10⁴ cells/mL. Testing antibodies were 1:2 serially diluted in wash buffer (1×PBS/1% BSA) and incubated with cells at 4° C. for 1 h. The secondary antibody goat anti-human IgG Fc FITC (3.2 moles FITC per mole IgG, Jackson Immunoresearch Lab) was added and incubated with cells at 4° C. in the dark for half an hour. The cells were then washed once, resuspended in 1×PBS/1% BSA and analyzed by flow cytometry (BD). Fluorescence intensity was converted to bound molecules/cell based on the quantitative beads Quantum™ MESF Kits (Bangs Laboratories, Inc.). The KD value of each antibody was calculated using Graphpad Prism5.

[6] = biological target: T2, human OX40, full-length, on cells; assay: flow cytometry, MFI against antibody concentration; neither the legend nor paragraph 266 names the cells, target taken as cell-surface human OX40 because the antibodies are anti-OX40
[7] = biological target: T2, human OX40, full-length, on cells; assay: flow cytometry, CHO-K1 cells expressing human OX40, MESF beads
Procedure: as §2

[8] = biological target: T7, rhesus monkey OX40 on transfected 293F cells (rhesus monkey); assay: flow cytometry on rhesus monkey OX40 transfected 293F cells
T7 construct: whole, on cells
Procedure: Testing antibodies were serially diluted in wash buffer (1×PBS/1% BSA) and incubated with cells at 4° C. for 1 h. After washing with 1×PB S/1% BSA, the secondary antibody goat anti-human IgG Fc-PE (Jackson ImmunoResearch Lab) was applied and incubated with cells at 4° C. in the dark for 1 h. The cells were then washed and resuspended in 1×PB S/1% BSA or fixed with 4% paraformaldehyde, and then analyzed by flow cytometry (BD).

[9] = biological target: T2, human OX40, full-length, on cells; assay: FACS, transfected 293F cells, antibody 1 ug/mL
Procedure: (§3) Binding of antibodies to chimeric OX40 variants was analyzed by flow cytometry. […] Cells were analyzed using flow cytometer.

[10] = biological target: T4, mouse OX40 (mPro1) on transfected 293F …; assay: FACS, transfected 293F cells, antibody 1 ug/mL
Procedure: as §3

[11] = biological target: T1, human OX40 extracellular domain (ECD) …; assay: epitope binning by competition against labelled BMK10 on human OX40; the antibody named in the legend box is titrated; the text describes an ELISA, the axis on the sheet reads MFI

T6 sequence (P25942 21-193): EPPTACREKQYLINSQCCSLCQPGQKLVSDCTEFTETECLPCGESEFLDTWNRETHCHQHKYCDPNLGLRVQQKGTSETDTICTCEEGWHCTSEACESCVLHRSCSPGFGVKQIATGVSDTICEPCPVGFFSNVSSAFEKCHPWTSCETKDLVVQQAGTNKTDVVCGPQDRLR
T5 sequence (Q07011 24-186): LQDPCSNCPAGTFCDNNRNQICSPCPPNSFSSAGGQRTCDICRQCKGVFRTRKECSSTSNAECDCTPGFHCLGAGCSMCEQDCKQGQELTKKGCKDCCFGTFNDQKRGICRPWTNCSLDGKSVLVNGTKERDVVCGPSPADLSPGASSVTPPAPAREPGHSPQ

Row | Binder | Kd [1] | koff [1] | kon [1] | IC50 (read off the curve) [2] | EC50 (read off the curve) [3] | binding result (human CD271 ECD) | binding result (human 4-1BB (CD137) ECD) | binding result (human CD40 ECD) | IC50 (read off the curve) [4] | EC50 (read off the curve) [5] | EC50 (read off the curve) [6] | Kd [7] | EC50 (read off the curve) [8] | MFI [9] | PE + % [9] | MFI [10] | PE + % [10] | IC50 (read off the curve) [11]
1 | B1 | 1.49 nM | 0.00128 s⁻¹ | 860000 M⁻¹ s⁻¹ | ~4 nM | 1 to 2 nM | no binding | no binding | no binding | ~3 nM | ~1 nM | – | – | – | – | – | – | – | –
2 | B2 | 1.16 nM | 0.000451 s⁻¹ | 390000 M⁻¹ s⁻¹ | ~4 nM | ~2 nM | no binding | no binding | no binding | ~3 nM | – | – | – | – | – | – | – | – | –
3 | B3 | 0.461 nM | 0.000243 s⁻¹ | 526000 M⁻¹ s⁻¹ | – | – | no binding | no binding | no binding | ~1 nM | – | ~0.8 nM | – | – | – | – | – | – | –
4 | B4 | 2.08 nM | 0.00145 s⁻¹ | 697000 M⁻¹ s⁻¹ | – | ~0.8 nM | – | – | – | – | ~0.9 nM | ~2 nM | – | – | – | – | – | – | –
5 | B5 | 0.502 nM | 0.000214 s⁻¹ | 426000 M⁻¹ s⁻¹ | ~1 nM | – | no binding | no binding | no binding | ~1 nM | ~0.6 nM | – | 0.067 nM | ~3 nM | 8320 | 89.3% | 49.9 | 0.315% | ~4 nM

Source: patent US20210171647A1 (WUXI BIOLOGICS SHANGHAI, published 2021)
